What all share (experiment): cell-based or functional assay
The target of experiment [1] is Tau seeds: sonicated human insoluble Tau from patients with Alzheimer's disease (AD-PHF, fraction 8) (human) (UniProt P10636).
In experiment [2] the target is Tau seeds: sonicated human insoluble Tau from patients with frontotemporal dementia (FTD-PHF) (human) (UniProt P10636).
For experiment [3], the target named is Tau seeds: sonicated human insoluble Tau from patients with progressive supranuclear palsy (PSP-PHF, fraction 8) (human) (UniProt P10636).
The target in experiment [4] is Tau seeds: brain fraction from transgenic mice expressing human Tau P301S (human) (UniProt P10636).
Experiment [5] deals with Tau seeds: brain fraction from transgenic mice expressing human Tau P301L (human) (UniProt P10636).

The results in this text go back to patent US20210139574A1.

IPN002 of WO2014/028777A2 (antibody), sequence (VH): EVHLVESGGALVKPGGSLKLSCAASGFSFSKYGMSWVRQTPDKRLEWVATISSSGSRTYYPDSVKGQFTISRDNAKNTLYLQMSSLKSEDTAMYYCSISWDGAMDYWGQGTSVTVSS
IPN002 of WO2014/028777A2 (antibody), sequence (VL): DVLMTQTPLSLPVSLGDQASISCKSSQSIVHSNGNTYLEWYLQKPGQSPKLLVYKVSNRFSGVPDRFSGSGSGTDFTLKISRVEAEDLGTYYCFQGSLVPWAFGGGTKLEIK
HJ8.5 of WO 2014/008404 (antibody), sequence (VH): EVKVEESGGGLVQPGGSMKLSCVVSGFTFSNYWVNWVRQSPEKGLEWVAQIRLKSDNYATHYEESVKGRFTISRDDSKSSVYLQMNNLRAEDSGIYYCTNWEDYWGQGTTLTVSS
HJ8.5 of WO 2014/008404 (antibody), sequence (VL): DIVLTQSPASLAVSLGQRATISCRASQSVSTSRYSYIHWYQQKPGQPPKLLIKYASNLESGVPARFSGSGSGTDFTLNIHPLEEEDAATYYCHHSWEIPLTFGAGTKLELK
Tau seeds: brain fraction from transgenic mice expressing human Tau P301S (human), sequence (P10636 other isoform, or with tags, fused parts or gaps P301S P301S): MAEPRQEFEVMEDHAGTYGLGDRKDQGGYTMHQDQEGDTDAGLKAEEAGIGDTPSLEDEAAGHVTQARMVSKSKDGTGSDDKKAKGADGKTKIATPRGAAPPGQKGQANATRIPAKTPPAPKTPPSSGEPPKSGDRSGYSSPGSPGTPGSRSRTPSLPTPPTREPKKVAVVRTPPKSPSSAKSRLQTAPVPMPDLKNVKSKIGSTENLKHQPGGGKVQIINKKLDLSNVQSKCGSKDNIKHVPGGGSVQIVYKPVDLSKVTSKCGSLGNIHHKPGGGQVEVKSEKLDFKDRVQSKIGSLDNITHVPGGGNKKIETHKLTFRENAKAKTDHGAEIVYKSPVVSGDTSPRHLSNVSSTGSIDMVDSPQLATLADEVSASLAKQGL
Tau seeds: brain fraction from transgenic mice expressing human Tau P301L (human), sequence (P10636 other isoform, or with tags, fused parts or gaps P301L P301L limits assumed): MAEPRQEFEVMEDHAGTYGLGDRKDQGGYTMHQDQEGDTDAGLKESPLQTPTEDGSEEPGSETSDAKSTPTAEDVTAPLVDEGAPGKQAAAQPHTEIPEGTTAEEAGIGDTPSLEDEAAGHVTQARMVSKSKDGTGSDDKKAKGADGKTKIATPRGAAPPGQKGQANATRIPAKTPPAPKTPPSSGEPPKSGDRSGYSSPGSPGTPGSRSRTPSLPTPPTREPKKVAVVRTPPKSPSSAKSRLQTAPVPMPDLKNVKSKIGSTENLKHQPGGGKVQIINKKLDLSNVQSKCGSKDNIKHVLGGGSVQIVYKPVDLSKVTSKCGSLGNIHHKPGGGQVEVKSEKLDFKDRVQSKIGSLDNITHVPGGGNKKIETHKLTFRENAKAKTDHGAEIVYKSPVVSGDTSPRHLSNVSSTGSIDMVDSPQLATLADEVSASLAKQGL
Tau seeds: sonicated human insoluble Tau from patients with progressive supranuclear palsy (PSP-PHF, fraction 8) (human), sequence (P10636 other isoform, or with tags, fused parts or gaps limits assumed): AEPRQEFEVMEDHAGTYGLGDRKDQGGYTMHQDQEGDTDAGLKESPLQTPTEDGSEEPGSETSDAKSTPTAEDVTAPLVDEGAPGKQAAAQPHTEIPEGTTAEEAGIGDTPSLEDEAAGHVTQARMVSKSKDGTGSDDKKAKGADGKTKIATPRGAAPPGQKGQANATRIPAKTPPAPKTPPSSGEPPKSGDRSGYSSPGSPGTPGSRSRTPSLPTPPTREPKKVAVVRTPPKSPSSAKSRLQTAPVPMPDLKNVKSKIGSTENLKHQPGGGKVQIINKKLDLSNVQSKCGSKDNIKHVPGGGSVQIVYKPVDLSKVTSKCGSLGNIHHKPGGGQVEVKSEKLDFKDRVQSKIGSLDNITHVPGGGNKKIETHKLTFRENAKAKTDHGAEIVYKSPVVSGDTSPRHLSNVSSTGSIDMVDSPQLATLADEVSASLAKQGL
Tau seeds: sonicated human insoluble Tau from patients with frontotemporal dementia (FTD-PHF) (human), sequence (P10636 other isoform, or with tags, fused parts or gaps limits assumed): as above
Tau seeds: sonicated human insoluble Tau from patients with Alzheimer's disease (AD-PHF, fraction 8) (human), sequence (P10636 other isoform, or with tags, fused parts or gaps limits assumed): as above

AT8 (MN1020) (antibody): the figures for the Imax (maximal efficacy at 300 nM), cellular Tau aggregation assay in experiment [1], in experiment [2] and in experiment [3] were 19%, 36% and 25%, respectively.
Turning to HJ8.5 of WO 2014/008404 (antibody), the Imax (maximal efficacy at 300 nM), cellular Tau aggregation assay was found to be 46% in experiment [1], 67% in experiment [2], 79% in experiment [3] and 43% in experiment [4]. Also, in experiment [3], the IC50, cellular Tau aggregation assay amounted to 73 nM.
As for IPN002 of WO2014/028777A2 (antibody), the IC50, cellular Tau aggregation assay came out at 122 nM in experiment [5] and 207 nM in experiment [3]. For the same substance, the Imax (maximal efficacy at 300 nM), cellular Tau aggregation assay in experiment [5] stood at 73%; in experiment [1], 19%; in experiment [2] it was 50%; in experiment [3] it was 64%; in experiment [4], 22%.
As to PT3 of WO2013/096380A2 (antibody), the IC50, cellular Tau aggregation assay amounted to 26 nM in experiment [5]; 32 nM in experiment [1]; 1 nM in experiment [2]; 47 nM in experiment [3]; 350 nM in experiment [4]. Moreover, the Imax (maximal efficacy at 300 nM), cellular Tau aggregation assay was 69% in experiment [5]; 69% in experiment [1]; 80% in experiment [2]; 55% in experiment [3]; 56% in experiment [4].
